No end group written: not given here.
What was measured:
TGF-β1 [1] = target: T1, TGF-β1 (Homo sapiens, UniProt P01137); assay: SPR
TGF-β1 [2] = target: T1, TGF-β1; assay: SPR; remark: listed apart in the source
TGF-β1 [3] = target: T1, TGF-β1; assay: sequestering from PRP by peptide-conjugated microspheres
TGF-β1 [4] = target: T1, TGF-β1; assay: 125I-TGF-β1 sequestering in 10% serum by peptide-conjugated microspheres

T1 sequence (P01137 279-390): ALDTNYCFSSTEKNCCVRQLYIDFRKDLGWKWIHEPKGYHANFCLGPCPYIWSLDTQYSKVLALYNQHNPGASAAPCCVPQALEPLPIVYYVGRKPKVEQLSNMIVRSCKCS

Kd (TGF-β1 [1]) | Kd (TGF-β1 [2]) | Kd (TGF-β1 [3]) | Kd (TGF-β1 [4]) | Binder
98.3 nM | 60 nM | – | – | CIAEIDLIPRDRPFV [RIP]
183 nM | 106 nM | – | – | CIAEIDLIPRDRPF
745 nM | 765 nM | – | – | CLIDFRIPADREVPI [Scrambled RIP]
– | – | ~215 nM | ~211 nM | CIAEIDLIPRDRPF (also: conjugated to PEG microspheres)

Reference: paper PMC9254699 (2021)
